Data as given in the Immune Epitope Database (IEDB).

How the values were obtained:
Conditions in all cases: source organism: Rickettsia bellii OSU 85-389
HLA-B*18:01 = assay: IEDB peptide-MHC binding, purified MHC/direct/fluorescence; filed as Kd, often an IC50 or EC50 that approximates it; ≥ and ≤ were set here for values at or beyond the usual limits of such assays
HLA-B*27:03 = assay: as above
HLA-A*02:16 = assay: as above
HLA-A*24:03 = assay: as above
HLA-A*03:01 = assay: as above
HLA-A*02:12 = assay: as above
HLA-B*51:01 = assay: as above
HLA-B*15:01 = assay: as above
HLA-A*68:02 = assay: as above
HLA-B*15:17 = assay: as above
HLA-A*30:01 = assay: IEDB peptide-MHC binding, purified MHC/competitive/fluorescence; filed as Kd, often an IC50 or EC50 that approximates it; ≥ and ≤ were set here for values at or beyond the usual limits of such assays
HLA-A*66:01 = assay: as above
HLA-B*58:01 = assay: as above
HLA-B*07:02 = assay: as above
HLA-B*14:02 = assay: as above
HLA-A*23:01 = assay: as above
HLA-A*11:01 = assay: as above
HLA-A*30:02 = assay: as above
HLA-B*08:01 = assay: as above
HLA-B*44:02 = assay: as above
HLA-B*53:01 = assay: as above
HLA-B*40:01 = assay: as above
HLA-A*01:01 = assay: as above
HLA-B*27:05 = assay: as above

Sequence: EDFEIFYNL
- Kd (HLA-B*18:01): ≥ 20 µM
- Kd (HLA-B*27:03): ≥ 20 µM
- Kd (HLA-A*02:16): ≥ 20 µM
- Kd (HLA-A*24:03): ≥ 20 µM
- Kd (HLA-A*03:01): ≥ 20 µM
- Kd (HLA-A*02:12): ≥ 20 µM
- Kd (HLA-B*51:01): ≥ 20 µM
- Kd (HLA-B*15:01): ≥ 20 µM
- Kd (HLA-A*68:02): 0.144 µM
- Kd (HLA-B*15:17): ≥ 20 µM
- Kd (HLA-A*30:01): ≥ 5 µM
- Kd (HLA-A*66:01): ≥ 5 µM
- Kd (HLA-B*58:01): ≥ 5 µM
- Kd (HLA-B*07:02): ≥ 5 µM
- Kd (HLA-B*14:02): ≥ 5 µM
- Kd (HLA-A*23:01): ≥ 5 µM
- Kd (HLA-A*11:01): ≥ 5 µM
- Kd (HLA-A*30:02): ≥ 5 µM
- Kd (HLA-B*08:01): ≥ 5 µM
- Kd (HLA-B*44:02): ≥ 5 µM
- Kd (HLA-B*53:01): ≥ 5 µM
- Kd (HLA-B*40:01): ≥ 5 µM
- Kd (HLA-A*01:01): ≥ 5 µM
- Kd (HLA-B*27:05): ≥ 5 µM
